Measured values taken from patent US20030096367A1 (WASHINGTON UNIVERSITY, published 2003).

How the values were obtained:
[1] = target: T1, wild type human Bcl-2 (human, UniProt P10415 1-239); experiment: immunoprecipitation of human Bcl-2 from double transfected FL5.12 cells, Western blot with anti-mouse Bcl-2 antibody (FIG. 21)
T1 construct: also called hBcl-2; human Bcl-2 wild-type
Source text: (§1) Immunoprecipitates were washed (unless indicated otherwise) once in lysis buffer followed by a wash in lysis buffer without NP-40. Immunoprecipitates were solubilized with SDS-PAGE sample buffer and electrophoresed through 12.5% SDS-polyacrylamide gels. Gels containing (³⁵ S)methionine labeled proteins were fixed with 10% glacial acetic acid and 30% methanol overnight, enhanced by impregnating with a commercial fluorography enhancing solution (Enhance by DuPont) for 60′, and […] in water for 30′. Gels were then dried and autoradiography performed at−70° C.
(§2) For immunoblots, proteins were electrotransferred overnight at 4° C. on nitrocellulose membranes. Filters were blocked for 2 hours with phosphate-buffered saline containing 3% non-fat milk. All additional immunostaining steps were performed in phosphate-buffered saline with 0.05% Tween-20 (PBS-Tween) at room temperature. Filters were incubated with primary antibody for 2 hours. Species specific biotinylated secondary antibodies (1:300) were also reacted for 2 hours. Immunoblots were reacted with horseradish-peroxidase-Streptavidin (1:1000) for 1 hour. Filters were washed in PBX-Tween 4 times for 5′ between each step and were developed with […] (BioRad) enhanced with nickel chloride (0.03%).
(§3) In FIG. 21 cells are created that bear two expression constructs. The Dα15 cell line is an FL5.12 bearing human Bcl-2 wild-type and mouse Bcl-2 wild-type vector. The DN2 bears a control Neomycin resistant expression vector and mouse Bcl-2 wild-type vector. The clone DSM4-5 contains mutant Bcl-2 of domain I and a mouse Bcl-2 wild-type whereas the DSM-4 contains another Bcl-2 mutant of human origin with mouse Bcl-2 wild-type. […] In FIG. 21B we see a primary immunoprecipitation of either wild-type human Bcl-2 or the mutated human Bcl-2 in which the 3-4 and 4-7 mutants have no associated Bax. Those immunoprecipitations are then developed by Western blot analysis with an anti-mouse Bcl-2 antibody. Both the wild-type human Bcl-2 as well as the two mutants mI 3-4 and mI 4-7 both associate with the wild-type mouse Bcl-2.

[2] = target: T2, human Bcl-2 mutant mI-4 (glutamic acid for the glycine in the WGR sequence of domain I) (human, UniProt P10415 1-239); experiment: as above
T2 construct: also called mI 4-7; mI4-7
Source text: as §1, §2, §3

[3] = target: T3, human Bcl-2 mutant mI-3 (alanine for the glycine in the WGR sequence of domain I) (human, UniProt P10415 1-239); experiment: as above
T3 construct: also called mI 3-4; mI3-4
Source text: as §1, §2, §3

[4] = target: T2, human Bcl-2 mutant mI-4 (glutamic acid …); experiment: immunoprecipitation of radiolabeled FL5.12 and 2B4 stable transfectants (FIG. 18)
Experimental: (§4) Prior to metabolic labeling, cells were washed once in prewarmed, serum-free, methionine-free Dulbecco's medium. Cells were resuspended at 3-5×10⁶ cells/ml in methionine-free Dulbecco's medium supplemented with 10% dialyzed FCS and either 5% complete medium or 5% WEHI 3B supernatant. Metabolic labeling was performed with 40 μCi/ml of ³⁵S)methionine, (³⁵S)cysteine for 9-12 hours before lysis. All steps of the immunoprecipitation were carried out on ice or in the cold room. Cells were washed twice with cold phosphate-buffered saline and lysed in an NP-40 isotonic lysis buffer with freshly added protease inhibitors (142.5 mM KCl, 5 mM MgCl₂, 10 mM HEPES pH:7.2, 1 mM EGTA, 0.2% NP-40, 0.2 mM phenylmethylsulfonyl fluoride, 0.1% Aprotinin, 0.7 μg/ml Pepstatin and 1 μg/ml Leupeptin) by nutation for 30′. Nuclei and unlysed cellular debris were removed by centrifugation at […] for 10′. Lysates were precleared with 10% v/v Protein A-Sepharose (Prot.A-S) for 30′ which was removed by centrifugation at 400×g for 2′. In experiments, the lysates were also mixed with 10× excess cold cells lysates for 15′ prior to the addition of the antibody. Specific antibodies were added for 90′ and immunoprecipitates were captured with 10% v/v Prot.A-S for 60′. […]

[5] = target: T3, human Bcl-2 mutant mI-3 (alanine for …); experiment: as above
Experimental: as §4

B1: murine Bcl-2 (wild type) (other, UniProt P10417 1-236, looked up)
chain: MAQAGRTGYDNREIVMKYIHYKLSQRGYEWDAGDADAAPLGAAPTPGIFSFQPESNPMPAVHRDMAARTSPLRPLVATAGPALSPVPPVVHLTLRRAGDDFSRRYRRDFAEMSSQLHLTPFTARGRFATVVEELFRDGVNWGRIVAFFEFGGVMCVESVNREMSPLVDNIALWMTEYLNRHLHTWIQDNGGWDAFVELYGPSMRPLFDFSWLSLKTLLSLALVGACITLGAYLGHK
notes: also called endogenous murine Bcl-2; mouse Bcl-2 wild-type
binding result [1]: binds | binding result [2]: binds | binding result [3]: binds

B2: murine Bax (endogenous p21 of FL5.12 cells, Bax alpha) (other)
chain: MDGSGEQLGSGGPTSSEQIMKTGAFLLQGFIQDRAGRMAGETPELTLEQPPQDASTKKLSECLRRIGDELDSNMELQRMIADVDRDSPREVFFRVAADMFADGNFNTGRVVALFYFASKLVLKALCTKVPELIRTIMGWTLDFLRERLLGWIQDQGGWEGLLSYFGTPTWQTVTIFVAGVLTASLTIWKKMG
notes: also called murine p21 protein; mouse p21
binding result [4]: no binding | binding result [5]: no binding
